Laboratory results as given in patent US8398971B2, “Methods, compounds, and compositions for treatment and prophylaxis in the respiratory tract” (NexBio, Inc., priority 2009, dated 2013).
Several values for one entry are separate records, joined by “and”; a condition that tells them apart may be missing. Equal entries are not always repeated. Entries after “also recorded” stand apart in the source; their conditions may differ. Where two headings read alike, the source gives them in different places.

How the values were obtained:
[1] = pH 5; cited from earlier work
influenza A (H1N1) virus = assay type: in vivo, ferrets; settings: for inflammatory response of infected ferrets: topical administration
[2] = test system: guinea pig model of allergic asthma; assay: allergen-induced early asthmatic reaction (PenH) in conscious unrestrained guinea pigs; assay type: in vivo; settings: for decrease of early asthmatic reaction (PenH) after OVA aerosol: OVA guinea pigs; for basal PenH: guinea pig, in vivo, 0.3 mg/kg
[3] = test system: guinea pig model of allergic asthma; assay: cell count and differentiation in broncho-alveolar lavage fluid of guinea pigs; assay type: in vivo
[4] = test system: acute OVA challenge mouse model of asthma; assay type: in vivo, BALB/c mice; settings: 0.6 mg/kg intranasal one hour prior to each OVA challenge; day 31
[5] = test system: acute OVA challenge mouse model of asthma; assay: blood eosinophil counts in OVA mouse model of asthma; assay type: in vivo, BALB/c mice; settings: 0.6 mg/kg intranasal
[6] = test system: acute OVA challenge mouse model of asthma; assay: PAS staining for lung mucus in OVA mouse model of asthma; parameters: species or system BALB/c mice; settings: in vivo
M2 muscarinic receptor = M2 muscarinic receptor (Homo sapiens, UniProt P08172); assay: M2 muscarinic receptor signaling in chem-1 cells (intracellular calcium); assay type: cell-based; settings: 0.4, 2 or 10 μM
M3 muscarinic receptor = target: T1, M3 muscarinic receptor (Homo sapiens, UniProt P20309); assay: M3 muscarinic receptor signaling in chem-1 cells (intracellular calcium); assay type: cell-based; settings: 0.4, 2 or 10 μM
T1 construct: host or cells: chem-1 cells
T1 sequence (P20309 whole entry): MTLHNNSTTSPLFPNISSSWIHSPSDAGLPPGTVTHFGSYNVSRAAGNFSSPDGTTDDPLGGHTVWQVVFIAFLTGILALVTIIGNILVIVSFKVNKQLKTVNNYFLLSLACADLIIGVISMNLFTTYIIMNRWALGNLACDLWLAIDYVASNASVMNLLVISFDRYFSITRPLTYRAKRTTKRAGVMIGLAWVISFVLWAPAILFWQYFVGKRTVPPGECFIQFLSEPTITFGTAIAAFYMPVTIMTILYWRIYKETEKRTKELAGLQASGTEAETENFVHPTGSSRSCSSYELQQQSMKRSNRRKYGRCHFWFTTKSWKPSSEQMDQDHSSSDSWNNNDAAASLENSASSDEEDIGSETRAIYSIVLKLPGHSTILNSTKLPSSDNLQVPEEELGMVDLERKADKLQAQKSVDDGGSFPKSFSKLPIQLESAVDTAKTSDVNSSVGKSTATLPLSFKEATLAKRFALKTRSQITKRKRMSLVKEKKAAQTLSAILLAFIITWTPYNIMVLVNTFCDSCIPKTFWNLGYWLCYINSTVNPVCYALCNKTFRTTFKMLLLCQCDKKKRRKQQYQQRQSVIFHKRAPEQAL

Sequence of M2 muscarinic receptor (P08172 whole entry): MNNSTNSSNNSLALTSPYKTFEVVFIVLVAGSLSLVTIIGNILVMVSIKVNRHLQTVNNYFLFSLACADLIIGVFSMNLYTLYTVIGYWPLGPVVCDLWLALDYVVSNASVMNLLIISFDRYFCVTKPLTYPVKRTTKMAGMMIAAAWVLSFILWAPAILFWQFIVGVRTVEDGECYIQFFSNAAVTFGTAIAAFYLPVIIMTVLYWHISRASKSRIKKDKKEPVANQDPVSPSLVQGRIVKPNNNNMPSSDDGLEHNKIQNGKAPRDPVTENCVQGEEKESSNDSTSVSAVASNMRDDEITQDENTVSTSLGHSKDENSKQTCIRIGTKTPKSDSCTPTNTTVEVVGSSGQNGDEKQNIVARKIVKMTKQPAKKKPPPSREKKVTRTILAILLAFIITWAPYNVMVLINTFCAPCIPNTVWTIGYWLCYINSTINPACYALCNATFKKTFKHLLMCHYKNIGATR

B1: A. viscosus: bacterial sialidase enzyme from Actinomyces viscosus (SEQ ID NO:12) (protein, listed as Actinomyces viscosus)
chain: MTSHSPFSRRRLPALLGSLPLAATGLIAAAPPAHAVPTSDGLADVTITQVNAPADGLYSVGDVMTFNITLTNTSGEAHSYAPASTNLSGNVSKCRWRNVPAGTTKTDCTGLATHTVTAEDLKAGGFTPQIAYEVKAVEYAGKALSTPETIKGATSPVKANSLRVESITPSSSQENYKLGDTVSYTVRVRSVSDKTINVAATESSFDDLGRQCHWGGLKPGKGAVYNCKPLTHTITQADVDAGRWTPSITLTATGTDGATLQTLTATGNPINVVGDHPQATPAPAPDASTELPASMSQAQHLAANTATDNYRIPAITTAPNGDLLISYDERPKDNGNGGSDAPNPNHIVQRRSTDGGKTWSAPTYIHQGTETGKKVGYSDPSYVVDHQTGTIFNFHVKSYDQGWGGSRGGTDPENRGIIQAEVSTSTDNGWTWTHRTITADITKDKPWTARFAASGQGIQIQHGPHAGRLVQQYTIRTAGGAVQAVSVYSDDHGKTWQAGTPIGTGMDENKVVELSDGSLMLNSRASDGSGFRKVAHSTDGGQTWSEPVSDKNLPDSVDNAQIIRAFPNAAPDDPRAKVLLLSHSPNPRPWSRDRGTISMSCDDGASWTTSKVFHEPFVGYTTIAVQSDGSIGLLSEDAHNGADYGGIWYRNFTMNWLGEQCGQKPAEPSPAPSPTAAPSAAPTEKPAPSAAPSAEPTQAPAPSSAPEPSAAPEPSSAPAPEPTTAPSTEPTPAPAPSSAPEQTDGPTAAPAPETSSAPAAEPTQAPTVAPSVEPTQAPGAQPSSAPKPGATGRAPSVVNPKATGAATEPGTPSSSASPAPSRNAAPTPKPGMEPDEIDRPSDGTMAQPTGGASAPSAAPTQAAKAGSRLSRTGTNALLILGLAGVAVVGGYLLLRARRSKN
- stability in buffer [1]: stable

B2: AR-AvCD: recombinant AR-AvCD sialidase fusion protein made from Construct #2 (FIG. 5, SEQ ID NOs: 18 & 19) (protein)
chain: MVKRKKKGGKNGKNRRNRKKKNPGDHPQATPAPAPDASTELPASMSQAQHLAANTATDNYRIPAITTAPNGDLLISYDERPKDNGNGGSDAPNPNHIVQRRSTDGGKTWSAPTYIHQGTETGKKVGYSDPSYVVDHQTGTIFNFHVKSYDQGWGGSRGGTDPENRGIIQAEVSTSTDNGWTWTHRTITADITKDKPWTARFAASGQGIQIQHGPHAGRLVQQYTIRTAGGAVQAVSVYSDDHGKTWQAGTPIGTGMDENKVVELSDGSLMLNSRASDGSGFRKVAHSTDGGQTWSEPVSDKNLPDSVDNAQIIRAFPNAAPDDPRAKVLLLSHSPNPRPWSRDRGTISMSCDDGASWTTSKVFHEPFVGYTTIAVQSDGSIGLLSEDAHNGADYGGIWYRNFTMNWLGEQCGQKPAEGADYGGIWYRNFTMNWLGEQCGQKPAE
- reduction of mean AUC of nasal protein concentrations vs vehicle-treated infected animals (influenza A (H1N1) virus; 8 infected treated ferrets): approximately 40%
- mean AUC of nasal protein concentrations (influenza A (H1N1) virus; 8 infected treated ferrets that shed virus, vehicle 4.48): 2.68 arbitrary units
- reduction of AUC value for cell counts vs vehicle-treated infected animals (influenza A (H1N1) virus; in vivo): approximately 3 fold
- AUC value for inflammatory cell counts in nasal washes (influenza A (H1N1) virus; infected treated ferrets, vehicle 1965): 674 arbitrary units
- inflammatory response of infected ferrets (influenza A (H1N1) virus): reduces the inflammatory responses
- inflammatory response of infected ferrets (influenza A (H1N1) virus; listed as fusion protein): the inflammatory response was reduced
- number of inflammatory cells in the nasal washes (influenza A (H1N1) virus; vs vehicle-treated infected animals): significant reduction in the number of inflammatory cells

B3: DAS181: fusion protein comprising a catalytic domain of a sialidase, and an anchoring domain (SEQ ID NO:21) (protein)
chain: MGDHPQATPAPAPDASTELPASMSQAQHLAANTATDNYRIPAITTAPNGDLLISYDERPKDNGNGGSDAPNPNHIVQRRSTDGGKTWSAPTYIHQGTETGKKVGYSDPSYVVDHQTGTIFNFHVKSYDQGWGGSRGGTDPENRGIIQAEVSTSTDNGWTWTHRTITADITKDKPWTARFAASGQGIQIQHGPHAGRLVQQYTIRTAGGAVQAVSVYSDDHGKTWQAGTPIGTGMDENKVVELSDGSLMLNSRASDGSGFRKVAHSTDGGQTWSEPVSDKNLPDSVDNAQIIRAFPNAAPDDPRAKVLLLSHSPNPRPWSRDRGTISMSCDDGASWTTSKVFHEPFVGYTTIAVQSDGSIGLLSEDAHNGADYGGIWYRNFTMNWLGEQCGQKPAKRKKKGGKNGKNRRNRKKKNP
- decrease of early asthmatic reaction (PenH) after OVA aerosol ([2]; treated on day 15, vs sodium sulfate): ~30%
- decrease of early asthmatic reaction (PenH) after OVA aerosol ([2]; treated on day 20): not on day 20
- basal PenH [2]: 0.25±0.01 and 0.28±0.01
- basal PenH ([2]; listed as Fludase®): 0.27±0.02 and 0.31±0.03
- number of eosinophils in BAL fluid ([3]; guinea pig, in vivo): restore the number of eosinophils up to historical control levels
- number of lymphocytes in BAL fluid ([3]; guinea pig, in vivo): decreased
- number of all inflammatory cells (macrophages, lymphocytes, neutrophils and eosinophils) ([3]; inflammation caused by SOD or OVA): significantly decreased
- neutrophil influx into the lungs (BAL) ([3]; saline and OVA groups): completely prevented this influx
- total number of cells in BAL fluid ([3]; saline and OVA guinea pigs): decreases the total number of cells
- total number of macrophages in BAL fluid ([3]; treatment on day 15 and 20, saline and OVA guinea pigs): strongly decreased
- Penh at 48 mg/ml Mch vs OVA challenged mice [4]: reduction in Penh
- blood eosinophils vs OVA challenged mice [5]: significantly reduced blood eosinophils
- PAS staining of airway epithelium (lung mucus) vs OVA challenged mice [6]: statistically significant reduction in PAS staining; also recorded: significantly reduced PAS staining
- effect on potency of agonist-mediated M2 receptor signaling (M2 muscarinic receptor): increased the potency of agonist-mediated M2 receptor signaling
- effect on potency of agonist-mediated M3 receptor signaling (M3 muscarinic receptor): decreased the potency of agonist-mediated M3 receptor signaling
